Substitutions are numbered along the chain they refer to.
B1: MUC1 gB06 (antibody, V domains shown)
VH: EVQLVQSGAEVKKPGATVKISCKVSGYTFTDHTMHWIKQRPGKGLEWMGYFYPRDDSTNYNEKFKGRVTLTADKSTDTAYMELSSLRSEDTAVYYCARGLRYALDYWGQGTLVTVSS
VL: EIVLTQSPATLSLSPGERATLSCRASSSVSSSYLYWYQQKPGQAPRLWIYGTSNLASGVPARFSGSGSGTDYTLTISSLEPEDAAVYYCHQYAWSPPTFGQGTKLEIK
notes: Monoclonal antibody; also called B06 antibody; anti-MUC1 antibody B06
B2: MUC1 G12 (antibody, V domains shown)
VH: B1 VH
VL: B1 VL with S30G, Y33N, G51R, T52S, S53T, N54K, A93R
notes: Monoclonal antibody; It was detected with an anti-human Fc secondary, and DSF reports CH2 and Fab regions
B3: MUC1 H02 (antibody, V domains shown)
VH: B1 VH
VL: B1 VL with Y50I, A93S
notes: as for B2

Each binder was assayed against T1, recombinant 60 mer MUC1 non-glycosylated-biotin (biotin conjugated to the N-terminus) (assay: ELISA, peptide coated on plate, anti-Fc HRP detection).
T1 construct: Not glycosylated; also called 60mer MUC1 non-glycosylated peptide
T1 sequence (peptide, as listed by the source): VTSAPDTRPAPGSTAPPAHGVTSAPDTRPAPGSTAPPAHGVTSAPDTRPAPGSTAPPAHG
Experimental: (§1) MUC1 ELISA: Antigens were coated directly on a Streptavidin (Pierce, 15500) or Maxisorp (VWR, 62409-024) 96-well plate at 100ng/well in PBS. Coated plates were incubated at 4° C. overnight. The plates were blocked with casein blocking buffer (Thermo Fisher, 37528) and washed with PBS-Tween-20. Antibodies were serially diluted in PBS, added to the coated wells and incubated for 1h at room temperature with shaking. To test for stickiness, antibodies were also added to uncoated, blocked wells. Peroxidase (HRP)-conjugated anti-Fc secondary (Jackson Immunoresearch, #109-035-098) was used for detection, followed by a […] substrate (Thermo Fisher, 34028) and H2S04 quench. Absorbance was read at 450 nm on a Molecular Devices plate reader.
B1: no binding.
B2: no binding.
B3: no binding.

These binders were tested against T2, recombinant 20 mer MUC1 glycosylated-biotin (Tn (GalNac) antigen or sialyl Tn (Neu5Acα2-6GalNAc) antigen modifications on some of the S/T residues; biotin conjugated to the N-terminus) in the same assay as above.
T2 construct: also called 20mer glycosylated MUC1 peptide
T2 sequence (peptide, as listed by the source): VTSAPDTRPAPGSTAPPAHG
Experimental: as §1
B1: binds.
B2: binds.
B3: binds.

Biological target: T3, decoy peptide (Tn (GalNac) antigen or sialyl Tn (Neu5Acα2-6GalNAc) antigen modifications on some of the S/T residues)
T3 construct: also called glycosylated decoy peptide
T3 peptide: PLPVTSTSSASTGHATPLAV
Experiment: as above
Experimental: as §1
B1: no binding.
B2: no binding.
B3: no binding.

— patent US20250084182A1 (R P SCHERER TECHNOLOGIES, published 2025)
